From patent publication US20250353930A1 (EXCELLERGY, published 2025)

T1: polyclonal human IgE (human)
T1 construct: Used at 10 nM to sensitise Hoxb8 mast cells overnight; also called surface IgE on Hoxb8 mast cells
T1 constant: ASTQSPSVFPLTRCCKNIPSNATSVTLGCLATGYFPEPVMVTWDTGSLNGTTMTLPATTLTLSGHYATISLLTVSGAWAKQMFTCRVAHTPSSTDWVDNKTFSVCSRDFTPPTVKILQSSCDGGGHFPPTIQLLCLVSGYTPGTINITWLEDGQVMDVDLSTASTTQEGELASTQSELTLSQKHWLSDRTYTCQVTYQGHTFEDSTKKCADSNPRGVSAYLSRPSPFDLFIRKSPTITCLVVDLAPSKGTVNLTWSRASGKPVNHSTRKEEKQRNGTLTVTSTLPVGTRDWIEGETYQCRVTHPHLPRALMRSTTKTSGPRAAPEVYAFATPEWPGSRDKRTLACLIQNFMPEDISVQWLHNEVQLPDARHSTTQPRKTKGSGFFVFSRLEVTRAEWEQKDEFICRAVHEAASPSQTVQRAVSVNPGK


Biological target: T1, polyclonal human IgE
Experiment: flow cytometry of surface IgE on Hoxb8 mast cells with human FcεRI, 20 h; dissociation of IgE from FcεRI

Row | IC50 | Binder
1 | 1070 nM | C5 (antibody, human IgG1, kappa, Whole IgG, comparator; also called Comparator 5; Comparator_5) heavy: not shown light: DIQLTQSPSSLSASVGDRVTITCRASKSVDADGDSYMNWYQAKPGRHPKLLIYAASYLESGVPSRFSGSGSGTDFTLTISSLQPEDFATYYCQQSHEDPYTFGQGTKVEIKGRTVAAPSVFIFPPSDEQLKSGTASVVCLLNNFYPREAKVQWKVDNALQSGNSQESVTEQDSKDSTYSLSSTLTLSKADYEKHKVYACEVTHQGLSSPVTKSFNRGEC
2 | 2010 nM | C6 (antibody, human IgG1, kappa, Whole IgG, comparator; also called Comparator 6; Comparator_6) heavy: not shown light: DIQLTQSPSSLSASVGDRVTITCRASKSVDADGDSYMNWYQAKPGRHPKLLIYAASYLESGVPSRFSGSGSGTDFTLTISSLQPEDFATYYCQQSHEDPYTFGQGTKVEIKRTVAAPSVFIFPPSDEQLKSGTASVVCLLNNFYPREAKVQWKVDNALQSGNSQESVTEQDSKDSTYSLSSTLTLSKADYEKHKVYACEVTHQGLSSPVTKSFNRGEC
3 | 815 nM | C4 (antibody, human IgG1, kappa, Whole IgG, comparator; also called Comparator 4; Comparator_4) heavy: not shown light: DIQLTQSPSSLSASVGDRVTITCRASKSVDADGDSYMNWYQAKPGRHPKLLIYAASYLESGVPSRFSGSGSGTDFTLTISSLQPEDFATYYCQQSHEDPYTFGQGTKVEIKGGRTVAAPSVFIFPPSDEQLKSGTASVVCLLNNFYPREAKVQWKVDNALQSGNSQESVTEQDSKDSTYSLSSTLTLSKADYEKHKVYACEVTHQGLSSPVTKSFNRGEC
